Series [1] deals with the molecule itself. The series is described as follows: multi-angle light scattering, self-association.
The target in series [2] is T1, human Nrp2 b1b2 (human, UniProt O60462 275-595).
T1 construct: range 275-595; Range is that of the crystallization construct; also called Nrp2 b1b2 domains
T1 sequence (looked up): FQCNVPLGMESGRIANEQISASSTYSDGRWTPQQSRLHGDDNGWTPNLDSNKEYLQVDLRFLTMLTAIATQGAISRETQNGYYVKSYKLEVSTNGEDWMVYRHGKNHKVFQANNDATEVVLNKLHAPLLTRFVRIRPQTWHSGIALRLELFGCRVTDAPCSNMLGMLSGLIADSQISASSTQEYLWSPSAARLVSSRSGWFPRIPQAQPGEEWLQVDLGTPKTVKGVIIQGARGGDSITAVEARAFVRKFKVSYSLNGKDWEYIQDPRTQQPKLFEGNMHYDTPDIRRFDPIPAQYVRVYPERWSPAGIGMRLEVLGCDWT
The series is described as follows: BIAcore (SPR), 500 nM Nrp protein injected over immobilized IgG at 25 C. From the text: (§1) Figure 11: FIG. 11—Analysis of anti-Nrp antibody binding kinetics. BIAcore kinetic analysis of anti-panNrp[4] antibody.

In series [3] the target is T2, human Nrp2 a1a2b1b2 (human, UniProt O60462 21-595, N-glycosylated (two sites within the a2 domain seen in the monoclinic crystal form)).
T2 construct: range 1-595; The printed range begins at Met1 and so includes the native signal peptide, which is cleaved on secretion
T2 sequence: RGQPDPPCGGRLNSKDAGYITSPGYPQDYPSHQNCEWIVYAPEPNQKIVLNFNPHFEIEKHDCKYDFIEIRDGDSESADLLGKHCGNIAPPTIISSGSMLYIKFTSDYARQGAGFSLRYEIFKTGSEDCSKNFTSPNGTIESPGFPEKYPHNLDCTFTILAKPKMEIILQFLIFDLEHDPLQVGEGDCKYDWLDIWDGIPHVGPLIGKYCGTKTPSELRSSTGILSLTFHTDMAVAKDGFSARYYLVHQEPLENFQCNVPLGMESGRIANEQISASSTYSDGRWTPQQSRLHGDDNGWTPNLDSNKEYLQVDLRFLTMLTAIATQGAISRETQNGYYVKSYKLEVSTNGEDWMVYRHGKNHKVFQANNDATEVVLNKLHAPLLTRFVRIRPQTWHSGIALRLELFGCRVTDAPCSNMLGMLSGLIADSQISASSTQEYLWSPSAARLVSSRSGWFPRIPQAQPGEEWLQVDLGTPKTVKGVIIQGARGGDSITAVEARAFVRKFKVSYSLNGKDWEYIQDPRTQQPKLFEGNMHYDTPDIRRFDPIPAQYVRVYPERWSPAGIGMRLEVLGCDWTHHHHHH
The series is described as follows: BIAcore, IgG immobilized on the chip, human NRP protein injected, 25 C; Nrp2 (second of the two affinities).
Text: as §1
On the technique in general: Surface plasmon resonance follows binding to a sensor surface in real time, without labels.

Series [4] concerns the target T3, human Nrp1 protein (BIAcore analyte) (human, UniProt O14786 22-586, limits assumed).
T3 construct: no residue range for such an Nrp1 construct is printed; also called neuropilin-1
T3 sequence (looked up): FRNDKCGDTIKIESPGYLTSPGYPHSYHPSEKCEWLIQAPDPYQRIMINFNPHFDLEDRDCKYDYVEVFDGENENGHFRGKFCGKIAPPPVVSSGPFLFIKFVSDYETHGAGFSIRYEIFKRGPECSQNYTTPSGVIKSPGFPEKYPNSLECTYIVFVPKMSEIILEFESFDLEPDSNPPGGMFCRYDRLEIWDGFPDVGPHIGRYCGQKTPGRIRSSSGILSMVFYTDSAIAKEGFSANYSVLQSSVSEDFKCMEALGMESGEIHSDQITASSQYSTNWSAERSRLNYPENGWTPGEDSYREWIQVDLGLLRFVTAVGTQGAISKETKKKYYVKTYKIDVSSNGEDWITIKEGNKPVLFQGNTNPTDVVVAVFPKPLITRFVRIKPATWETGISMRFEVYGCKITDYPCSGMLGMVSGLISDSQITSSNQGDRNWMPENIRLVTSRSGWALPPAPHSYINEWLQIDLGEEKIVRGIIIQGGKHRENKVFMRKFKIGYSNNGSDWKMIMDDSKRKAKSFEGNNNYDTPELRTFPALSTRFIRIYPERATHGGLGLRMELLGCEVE
Description: BIAcore, IgG immobilized on the chip, human NRP protein injected, 25 C; Nrp1 (first of the two affinities).
Text: as §1

This is an account of results in patent US8318163 (Genentech, dated 2012).

The Kd is the free concentration of one partner at which half of the binding sites on the other are occupied at equilibrium, for simple one-to-one binding.

B1: human Nrp2 a2b1b2 (receptor, UniProt O60462 145-595, looked up)
chain: GSEDCSKNFTSPNGTIESPGFPEKYPHNLDCTFTILAKPKMEIILQFLIFDLEHDPLQVGEGDCKYDWLDIWDGIPHVGPLIGKYCGTKTPSELRSSTGILSLTFHTDMAVAKDGFSARYYLVHQEPLENFQCNVPLGMESGRIANEQISASSTYSDGRWTPQQSRLHGDDNGWTPNLDSNKEYLQVDLRFLTMLTAIATQGAISRETQNGYYVKSYKLEVSTNGEDWMVYRHGKNHKVFQANNDATEVVLNKLHAPLLTRFVRIRPQTWHSGIALRLELFGCRVTDAPCSNMLGMLSGLIADSQISASSTQEYLWSPSAARLVSSRSGWFPRIPQAQPGEEWLQVDLGTPKTVKGVIIQGARGGDSITAVEARAFVRKFKVSYSLNGKDWEYIQDPRTQQPKLFEGNMHYDTPDIRRFDPIPAQYVRVYPERWSPAGIGMRLEVLGCDWT
notes: range 145-595; Purified on Ni-NTA; the tag of this construct is not described
Regarding B1, the binding result in series [1] is “no binding”.

B2: anti-panNrp^A antibody, clone YW68.11.26 (IgG) (antibody, V domains shown)
VH: EVQLVESGGGLVQPGGSLRLSCAASGFTISGYGIHWVRQAPGKGLEWVAYIYPDSGYTDYADSVKGRFTISADTSKNTAYLQMNSLRAEDTAVYYCAREDFRNRRRLWYVMDYWGQGT
VL: DIQMTQSPSSLSASVGDRVTITCRASQDVSTAVAWYQQKPGKAPKLLIYSASFLYSGVPSRFSGSGSGTDFTLTDSSLQPEDFATYYCQQAWAYLTTFGQGTKVEIKR
notes: Human IgG1 from a synthetic phage library; immobilized as IgG on the BIAcore chip
In the case of B2, the binding result in series [2] is listed as “no binding (tested: 500 nM)”. In addition, the Kd was determined as 0.15 nM in series [3] and 0.21 nM in series [4].

B3: full-length human Nrp2-ECD (a1a2b1b2c) (receptor)
chain: RGQPDPPCGGRLNSKDAGYITSPGYPQDYPSHQNCEWIVYAPEPNQKIVLNFNPHFEIEKHDCKYDFIEIRDGDSESADLLGKHCGNIAPPTIISSGSMLYIKFTSDYARQGAGFSLRYEIFKTGSEDCSKNFTSPNGTIESPGFPEKYPHNLDCTFTILAKPKMEIILQFLIFDLEHDPLQVGEGDCKYDWLDIWDGIPHVGPLIGKYCGTKTPSELRSSTGILSLTFHTDMAVAKDGFSARYYLVHQEPLENFQCNVPLGMESGRIANEQISASSTYSDGRWTPQQSRLHGDDNGWTPNLDSNKEYLQVDLRFLTMLTAIATQGAISRETQNGYYVKSYKLEVSTNGEDWMVYRHGKNHKVFQANNDATEVVLNKLHAPLLTRFVRIRPQTWHSGIALRLELFGCRVTDAPCSNMLGMLSGLIADSQISASSTQEYLWSPSAARLVSSRSGWFPRIPQAQPGEEWLQVDLGTPKTVKGVIIQGARGGDSITAVEARAFVRKFKVSYSLNGKDWEYIQDPRTQQPKLFEGNMHYDTPDIRRFDPIPAQYVRVYPERWSPAGIGMRLEVLGCDWTDSKPTVETLGPTVKSEETTTPYPTEEEATECGENCSFEDDKDLQLPSGFNCNFDFLEEPCGWMYDHAKWLRTTWASSSSPNDRTFPDDRNFLRLQSDSQREGQYARLISPPVHLPRSPVCMEFQYQATGGRGVALQVVREASQESKLLWVIREDQGGEWKHGRIILPSYDMEYQIVFEGVIGKGRSGEIAIDDIRISTDVPLENCMEPISAFAGENFKVDIPEIHEREGYEDEIDDEYEVDWSNSSSATSGSGAPSTDKEKSWLYTLDPHHHHHH
notes: extracellular domain
Regarding B3, the binding result in series [1] is given as “no binding”.
